# PMC6202051, “The DWORF micropeptide enhances contractility and prevents heart failure in a mouse model of dilated cardiomyopathy” (eLife, 2018)
# Ends that are not written are not given here. YFP = yellow fluorescent protein
# Key:
# mCerulean (Cer)-SERCA2a [1] = target: mCerulean (Cer)-SERCA2a (UniProt O55143); experiment: FRET or BRET; progressive acceptor photobleaching of YFP in live transfected AAV-293 cells; donor against acceptor fluorescence, a linear relationship taken as a 1:1 complex
# mCerulean (Cer)-SERCA2a (UniProt O55143), sequence (O55143 other isoform, or with tags, fused parts or gaps): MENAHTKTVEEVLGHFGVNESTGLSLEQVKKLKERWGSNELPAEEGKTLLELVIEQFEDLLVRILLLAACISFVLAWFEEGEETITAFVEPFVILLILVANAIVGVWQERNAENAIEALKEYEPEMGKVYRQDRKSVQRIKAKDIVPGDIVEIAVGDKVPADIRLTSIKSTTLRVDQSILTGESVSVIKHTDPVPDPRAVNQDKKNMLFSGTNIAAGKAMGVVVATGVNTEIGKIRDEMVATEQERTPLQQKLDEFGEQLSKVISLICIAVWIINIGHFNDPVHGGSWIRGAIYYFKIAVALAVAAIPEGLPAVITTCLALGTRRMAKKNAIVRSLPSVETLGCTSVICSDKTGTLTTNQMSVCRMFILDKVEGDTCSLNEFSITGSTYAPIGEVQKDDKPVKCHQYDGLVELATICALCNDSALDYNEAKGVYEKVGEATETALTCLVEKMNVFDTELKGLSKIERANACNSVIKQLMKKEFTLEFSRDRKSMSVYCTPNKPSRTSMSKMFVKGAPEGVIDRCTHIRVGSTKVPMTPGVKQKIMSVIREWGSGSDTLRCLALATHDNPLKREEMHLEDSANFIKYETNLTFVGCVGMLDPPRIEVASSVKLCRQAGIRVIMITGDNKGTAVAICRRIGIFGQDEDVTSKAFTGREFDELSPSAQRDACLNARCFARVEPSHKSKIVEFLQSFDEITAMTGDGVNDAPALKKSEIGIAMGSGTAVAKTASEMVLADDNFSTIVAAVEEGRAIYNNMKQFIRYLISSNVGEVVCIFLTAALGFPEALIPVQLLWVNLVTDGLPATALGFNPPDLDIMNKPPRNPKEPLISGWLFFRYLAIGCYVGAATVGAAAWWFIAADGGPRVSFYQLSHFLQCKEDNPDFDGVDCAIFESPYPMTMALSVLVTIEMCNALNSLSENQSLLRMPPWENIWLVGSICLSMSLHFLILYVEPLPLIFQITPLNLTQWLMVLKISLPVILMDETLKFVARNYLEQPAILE
# mCerulean (Cer)-SERCA2a [2] = target: T1, mCerulean (Cer)-SERCA2a (UniProt O55143-2 1-998); experiment: as above; details: partners not purified
# T1 construct: SERCA2a, the predominant cardiac isoform of the sarco(endo)plasmic reticulum Ca2+-ATPase; also called SR Ca2+-ATPase; source: AAV-293 cells, transiently transfected, in live cells
# T1 sequence (O55143 other isoform, or with tags, fused parts or gaps): as above
stoichiometry N (mCerulean (Cer)-SERCA2a [1]),stoichiometry N (mCerulean (Cer)-SERCA2a [2]),Molecule
1,–,yellow fluorescent protein (YFP)-DWORF (peptide)
–,1,"yellow fluorescent protein (YFP)-PLN (natural protein, UniProt P61014 1-52, looked up, cysteine pairing not given here, phospholamban (PLN); In the PLN-PLN and PLN-DWORF FRET experiments one partner must have carried the donor (Cer); it may be another species (e.g. canine) in the cited FRET work; also called phospholamban; source: AAV-293 cells, transiently transfected, in live cells) {YFP}-MEKVQYLTRSAIRRASTIEMPQQARQNLQNLFINFCLILICLLLICIIVMLL"
